Where no end group is shown, it is not given here. resin bead = not defined here; resin = not defined here
Columns and labels:
[1] = target: T1, memapsin 1 (auto-catalytically activated promemapsin 1-T1; amino acid residues 58-461 of SEQ ID NO: 4) (Homo sapiens (Human), UniProt Q9Y5Z0 63-466); test: on-bead combinatorial inhibitor library probed with memapsin 1, antibody/alkaline phosphatase staining
T1 construct: also called Mep1; M1
T1 sequence: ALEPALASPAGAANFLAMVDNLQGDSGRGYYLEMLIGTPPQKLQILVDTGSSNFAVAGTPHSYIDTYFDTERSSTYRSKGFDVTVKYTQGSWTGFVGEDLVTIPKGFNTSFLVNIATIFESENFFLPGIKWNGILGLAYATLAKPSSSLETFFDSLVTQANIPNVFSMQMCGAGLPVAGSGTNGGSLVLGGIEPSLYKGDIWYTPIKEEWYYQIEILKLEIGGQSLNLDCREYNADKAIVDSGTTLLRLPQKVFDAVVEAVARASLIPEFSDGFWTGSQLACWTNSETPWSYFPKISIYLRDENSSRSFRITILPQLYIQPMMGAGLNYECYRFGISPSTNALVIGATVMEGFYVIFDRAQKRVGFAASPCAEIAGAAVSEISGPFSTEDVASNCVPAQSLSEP

[2] = target: T2, memapsin 2 (spontaneously activated promemapsin 2-T1; amino acids 43-456 and 45-456 of SEQ ID NO: 8) (human, UniProt P56817 41-454); test: on-bead combinatorial inhibitor library, antibody/alkaline phosphatase staining
T2 construct: The library probing says only 'recombinant memapsin 2'; also called BACE; ASP2

[3] = target: T2, memapsin 2 (spontaneously activated …); test: on-bead combinatorial inhibitor library probed with 4 nM memapsin 2, OM99-2 wash, antibody/alkaline phosphatase staining
[4] = target: T2, memapsin 2 (spontaneously activated …); test: inhibition of FS-2 fluorogenic substrate cleavage; paragraph 177 calls the same value Ki
[5] = target: T2, memapsin 2 (spontaneously activated …); test: enzyme inhibition kinetics
[6] = target: T1, memapsin 1 (auto-catalytically …); test: ratio of Ki apparent for memapsin 1 to Ki apparent for memapsin 2
[7] = target: T1, memapsin 1 (auto-catalytically …); test: inhibition of FS-2 fluorogenic substrate cleavage
[8] = target: T2, memapsin 2 (spontaneously activated …); test: co-crystal structure

T2 sequence (P56817 41-454): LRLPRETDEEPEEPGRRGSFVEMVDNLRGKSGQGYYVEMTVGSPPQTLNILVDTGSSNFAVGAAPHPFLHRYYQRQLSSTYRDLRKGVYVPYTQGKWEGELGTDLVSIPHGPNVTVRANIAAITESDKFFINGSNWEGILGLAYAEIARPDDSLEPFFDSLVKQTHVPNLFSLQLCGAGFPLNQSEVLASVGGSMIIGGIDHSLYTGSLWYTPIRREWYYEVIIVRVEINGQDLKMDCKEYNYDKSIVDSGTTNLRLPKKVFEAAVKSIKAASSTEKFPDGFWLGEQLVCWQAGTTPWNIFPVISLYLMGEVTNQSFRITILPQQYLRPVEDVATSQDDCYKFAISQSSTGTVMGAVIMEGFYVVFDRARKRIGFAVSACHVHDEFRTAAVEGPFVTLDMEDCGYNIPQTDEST

B1: library bead inhibitor Gly-Ile-Asn-Leu*Ala-Val-Leu-Phe-Arg-Met-Gly-Gly-resin (peptide)
peptide: GINLAVLFRMGG-resin
modifications: reading uncertain; also: hydroxyethylene isostere between Leu4 and Ala5, printed as Gly-Ile-Asn-Leu*Ala-Val-Leu-Phe-Arg-Met-Gly-Gly-resin
binding result [1]: binds

B2: library bead Neg2: Gly-Asp-Phe-Leu*Ala-(not printed)-Ser-Phe-Arg-Met-Gly-Gly-resin (peptide)
peptide: GDFLAXSFRMGG-{resin bead}
modifications: not fully specified; X: residue not identified in the source; also: hydroxyethylene isostere between Leu4 and Ala5
notes: Randomly selected negative control bead
binding result [2]: no binding (tested: 4 nM memapsin 2)

B3: library bead inhibitor Gly-Ile-Asp-Leu*Ala-Val-Tyr-Phe-Arg-Met-Gly-Gly-resin (peptide)
peptide: GIDLAVYFRMGG-resin
modifications: reading uncertain; also: hydroxyethylene isostere between Leu4 and Ala5, printed as Gly-Ile-Asp-Leu*Ala-Val-Tyr-Phe-Arg-Met-Gly-Gly-resin
binding result [3]: binds

ELDLAVEF (also: hydroxyethylene isostere in place of Leu4-Ala5 peptide bond) [OM00-3 (ELDL*AVEF)]
Ki apparent [4]: 0.31 nM | Ki [5]: 0.3 nM | fold improvement of Ki over OM99-2 [5]: 5.2 fold | fold lower Ki than OM99-2 [5]: ~5 fold | Ki apparent (M1/M2) [6]: 0.59 | Ki apparent [7]: 0.18 nM

B4: library bead inhibitor Gly-Leu-Gln-Leu*Ala-Val-Ile-Phe-Arg-Met-Gly-Gly-resin (peptide)
peptide: GLQLAVIFRMGG-resin
modifications: reading uncertain; also: hydroxyethylene isostere between Leu4 and Ala5, printed as Gly-Leu-Gln-Leu*Ala-Val-Ile-Phe-Arg-Met-Gly-Gly-resin
binding result [1]: binds

B5: library bead inhibitor Gly-Ile-Phe-Leu*Ala-Val-Glu-Phe-Arg-Met-Gly-Gly-resin (peptide)
peptide: GIFLAVEFRMGG-resin
modifications: reading uncertain; also: hydroxyethylene isostere between Leu4 and Ala5, printed as Gly-Ile-Phe-Leu*Ala-Val-Glu-Phe-Arg-Met-Gly-Gly-resin
binding result [1]: binds

B6: library bead inhibitor Gly-Leu-Asn-Leu*Ala-Val-Glu-Phe-Arg-Met-Gly-Gly-resin (peptide)
peptide: GLNLAVEFRMGG-resin
modifications: reading uncertain; also: hydroxyethylene isostere between Leu4 and Ala5, printed as Gly-Leu-Asn-Leu*Ala-Val-Glu-Phe-Arg-Met-Gly-Gly-resin
binding result [1]: binds

B7: library bead inhibitor Gly-Leu-Asp-Leu*Ala-Val-Trp-Phe-Arg-Met-Gly-Gly-resin (peptide)
peptide: GLDLAVWFRMGG-resin
modifications: reading uncertain; also: hydroxyethylene isostere between Leu4 and Ala5, printed as Gly-Leu-Asp-Leu*Ala-Val-Trp-Phe-Arg-Met-Gly-Gly-resin
binding result [1]: binds

B8: library bead inhibitor Gly-Leu-Asp-Leu*Ala-Val-Lys-Phe-Arg-Met-Gly-Gly-resin (peptide)
peptide: GLDLAVKFRMGG-resin
modifications: reading uncertain; also: hydroxyethylene isostere between Leu4 and Ala5, printed as Gly-Leu-Asp-Leu*Ala-Val-Lys-Phe-Arg-Met-Gly-Gly-resin
binding result [1]: binds

B9: library bead inhibitor Gly-Leu-Glu-Leu*Ala-Val-Trp-Phe-Arg-Met-Gly-Gly-resin (peptide)
peptide: GLELAVWFRMGG-resin
modifications: reading uncertain; also: hydroxyethylene isostere between Leu4 and Ala5, printed as Gly-Leu-Glu-Leu*Ala-Val-Trp-Phe-Arg-Met-Gly-Gly-resin
binding result [1]: binds

B10: library bead inhibitor Gly-Leu-Asp-Leu*Ala-Val-Thr-Phe-Arg-Met-Gly-Gly-resin (peptide)
peptide: GLDLAVTFRMGG-resin
modifications: reading uncertain; also: hydroxyethylene isostere between Leu4 and Ala5, printed as Gly-Leu-Asp-Leu*Ala-Val-Thr-Phe-Arg-Met-Gly-Gly-resin
binding result [1]: binds

B11: library bead inhibitor Gly-Leu-Asp-Leu*Ala-Val-Leu-Phe-Arg-Met-Gly-Gly-resin (peptide)
peptide: GLDLAVLFRMGG-resin
modifications: reading uncertain; also: hydroxyethylene isostere between Leu4 and Ala5, printed as Gly-Leu-Asp-Leu*Ala-Val-Leu-Phe-Arg-Met-Gly-Gly-resin
binding result [1]: binds

B12: library bead inhibitor Gly-Leu-Asp-Leu*Ala-Val-Met-Phe-Arg-Met-Gly-Gly-resin (peptide)
peptide: GLDLAVMFRMGG-resin
modifications: reading uncertain; also: hydroxyethylene isostere between Leu4 and Ala5, printed as Gly-Leu-Asp-Leu*Ala-Val-Met-Phe-Arg-Met-Gly-Gly-resin
binding result [1]: binds

B13: library bead inhibitor Gly-Leu-Glu-Leu*Ala-Val-Gln-Phe-Arg-Met-Gly-Gly-resin (peptide)
peptide: GLELAVQFRMGG-resin
modifications: reading uncertain; also: hydroxyethylene isostere between Leu4 and Ala5, printed as Gly-Leu-Glu-Leu*Ala-Val-Gln-Phe-Arg-Met-Gly-Gly-resin
binding result [1]: binds | binding result [3]: binds

B14: library bead inhibitor Gly-Ile-Asp-Leu*Ala-Val-Val-Phe-Arg-Met-Gly-Gly-resin (peptide)
peptide: GIDLAVVFRMGG-resin
modifications: reading uncertain; also: hydroxyethylene isostere between Leu4 and Ala5, printed as Gly-Ile-Asp-Leu*Ala-Val-Val-Phe-Arg-Met-Gly-Gly-resin
binding result [1]: binds

B15: library bead inhibitor Gly-Ile-Asp-Leu*Ala-Val-Asn-Phe-Arg-Met-Gly-Gly-resin (peptide)
peptide: GIDLAVNFRMGG-resin
modifications: reading uncertain; also: hydroxyethylene isostere between Leu4 and Ala5, printed as Gly-Ile-Asp-Leu*Ala-Val-Asn-Phe-Arg-Met-Gly-Gly-resin
binding result [1]: binds

B16: library bead inhibitor Gly-Leu-Asp-Leu*Ala-Val-Glu-Phe-Arg-Met-Gly-Gly-resin (peptide)
peptide: GLDLAVEFRMGG-resin
modifications: reading uncertain; also: hydroxyethylene isostere between Leu4 and Ala5, printed as Gly-Leu-Asp-Leu*Ala-Val-Glu-Phe-Arg-Met-Gly-Gly-resin
binding result [3]: binds

B17: library bead inhibitor Gly-Leu-Phe-Leu*Ala-Val-Glu-Phe-Arg-Met-Gly-Gly-resin (peptide)
peptide: GLFLAVEFRMGG-resin
modifications: reading uncertain; also: hydroxyethylene isostere between Leu4 and Ala5, printed as Gly-Leu-Phe-Leu*Ala-Val-Glu-Phe-Arg-Met-Gly-Gly-resin
binding result [3]: binds

B18: library bead inhibitor Gly-Leu-Glu-Leu*Ala-Val-Glu-Phe-Arg-Met-Gly-Gly-resin (peptide)
peptide: GLELAVEFRMGG-resin
modifications: reading uncertain; also: hydroxyethylene isostere between Leu4 and Ala5, printed as Gly-Leu-Glu-Leu*Ala-Val-Glu-Phe-Arg-Met-Gly-Gly-resin
binding result [3]: binds

B19: library bead inhibitor Gly-Leu-Asp-Leu*Ala-Val-Gln-Phe-Arg-Met-Gly-Gly-resin (peptide)
peptide: GLDLAVQFRMGG-resin
modifications: reading uncertain; also: hydroxyethylene isostere between Leu4 and Ala5, printed as Gly-Leu-Asp-Leu*Ala-Val-Gln-Phe-Arg-Met-Gly-Gly-resin
binding result [3]: binds

B20: OM99-2 (EVNL*AAEF) (peptide)
peptide: EVNXXAEF
modifications: hydroxyethylene transition-state isostere (*) in place of the peptide bond between Leu4 (P1) and Ala5 (P1′)
notes: also called EVNLΨAAEF
binding result [8]: binds

B21: library bead Neg1: Gly-Phe-Met-Leu*Ala-Asn-Arg-Phe-Arg-Met-Gly-Gly-resin (peptide)
peptide: GFMLANRFRMGG-resin
modifications: reading uncertain; also: hydroxyethylene isostere between Leu4 and Ala5, printed as Gly-Phe-Met-Leu*Ala-Asn-Arg-Phe-Arg-Met-Gly-Gly-resin
notes: as for B2
binding result [2]: no binding (tested: 4 nM memapsin 2)
